{"source": "paper PMC9253516", "about": "(2022)", "target": "Survivin full length (UniProt O15392 1-142)", "sequence (O15392 whole entry)": "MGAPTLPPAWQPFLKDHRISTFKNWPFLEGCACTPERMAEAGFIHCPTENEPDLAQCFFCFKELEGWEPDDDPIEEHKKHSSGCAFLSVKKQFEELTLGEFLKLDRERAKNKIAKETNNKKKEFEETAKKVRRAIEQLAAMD", "experiment": "ITC", "data": [{"binder": "AKER", "note": "[Sgo1_(AKER) peptide]", "values": [{"measurement": "Kd", "result": 11.6, "unit": "µM"}]}]}
